From paper PMC11865472
pKd: −log10 of the molar value. Blank lines part the entries; values can stand above or below the substance they belong to.

Key:
[1] = biological target: biotinylated TGF-β2 homodimer; experiment: SPR; conditions: surface: TGF-β2, read off a plot
[2] = biological target: biotin-TGF-β2 (minimally biotinylated TGF-β2) (human); experiment: SPR; BIAcore X100; minimally biotinylated TGF-β2 captured on a neutravidin CM5 chip, max 50 RU; zfBGO variants injected, 2-fold dilution series (500 or 1000 - 31.3 nM); 10 mM CHES, 150 mM NaCl, 3 mM EDTA, 0.01% P20, pH 8.6; 100 µl/min; 1:1 kinetic model; two consecutive repeats
[3] = biological target: inhibin A (InhA), mature heterodimer (UniProt P05111); experiment: SPR; TGF-β2 (b) or InhA (c) immobilised; BGZP-C mutants injected, 2-fold serial dilutions 500 - 15.6 nM; three consecutive repeats
Sequence of inhibin A (InhA), mature heterodimer (P05111 233-366, chain 1 of 2): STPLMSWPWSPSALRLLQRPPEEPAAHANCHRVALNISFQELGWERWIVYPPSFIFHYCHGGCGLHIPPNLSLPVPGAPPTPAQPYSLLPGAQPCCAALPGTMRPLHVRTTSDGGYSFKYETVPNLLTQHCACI
Sequence of inhibin A (InhA), mature heterodimer (P08476 311-426, chain 2 of 2, further chain): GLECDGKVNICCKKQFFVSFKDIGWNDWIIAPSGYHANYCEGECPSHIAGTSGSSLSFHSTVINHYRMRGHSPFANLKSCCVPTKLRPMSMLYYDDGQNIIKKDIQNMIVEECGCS

[4] = biological target: TGF-β2 (growth factor domain, wild type) (human); experiment: SPR; TGF-β2 immobilised on the chip surface; ratBGO, zfBGO, ratBGO-zfBL or ratBGO-Y248A injected, 2-fold dilution series 500 - 31.3 nM; three consecutive repeats
[5] = biological target: TGF-β2 (Y50A, L51A) (human); experiment: SPR; BIAcore T200; TGF-β2 WT or TGF-β2 mutants amine-coupled (EDC-NHS) to a CM4 chip, max 400 RU; zfBGO WT or BGZP-C WT injected, 2-fold dilution series 250 - 15.6 nM; 10 mM CHES, 150 mM NaCl, 3 mM EDTA, 0.01% P20, pH 8.0; 100 µl/min; 1:1 kinetic model with drift; three consecutive repeats
[6] = biological target: TGF-β2 (growth factor domain, wild type) (human); experiment: as above

Substance: zebrafish betaglycan orphan domain (zfBGO) K319A
- pKd ([1]; parent: est. 33): 6.74

Substance: rat betaglycan ZP-C domain (BG_(ZP-C)), mammalian-expressed E130A
- pKd ([1]; parent: est. 160): 5.85

Substance: rat betaglycan ZP-C domain (BG_(ZP-C)), mammalian-expressed W162A
- pKd ([1]; parent: est. 160): 6.14

Substance: zfBGO L208A (domain or fragment)
- pKd [2]: 7.06

Substance: rat betaglycan ZP-C domain (BG_(ZP-C)), mammalian-expressed Q166A
- pKd ([1]; parent: est. 160): 6.70

Substance: zebrafish betaglycan orphan domain (zfBGO) K316A
- pKd ([1]; parent: est. 33): 6.89

Substance: BGZP-C N82A (domain or fragment)
- pKd [3]: 6.01

Substance: rat betaglycan ZP-C domain (BG_(ZP-C)), mammalian-expressed L143A
- pKd ([1]; parent: est. 160): 6.89

Substance: zebrafish betaglycan orphan domain (zfBGO), wild type (domain or fragment)
- pKd [4]: 7.07
- pKd [2]: 7.42
- pKd [5]: 6.69
- pKd [6]: 6.83

Substance: zfBGO K316A (domain or fragment)
- pKd [2]: 6.87

Substance: rat betaglycan ZP-C domain (BG_(ZP-C)), mammalian-expressed W162A; M165A
- pKd ([1]; parent: est. 160): 5.89

Second part, the substance after the results:

- pKd [3]: 5.97
Substance: BGZP-C I161A (domain or fragment)

- pKd ([1]; parent: est. 160): 6.49
Substance: rat betaglycan ZP-C domain (BG_(ZP-C)), mammalian-expressed M164A

- pKd [3]: 6.09
Substance: BGZP-C I161Y (domain or fragment)

- pKd [2]: 6.76
Substance: zfBGO K319A (domain or fragment)

- pKd [3]: 6.05
Substance: BGZP-C N82Y (domain or fragment)

- pKd [4]: 7.06
Substance: ratBGO-zfBL (ratBGO with the shortened binding loop of zfBGO) (from UniProt P26342 31-360) (domain or fragment)

- pKd ([1]; parent: est. 160): 6.48
Substance: rat betaglycan ZP-C domain (BG_(ZP-C)), mammalian-expressed M165A

- pKd ([1]; parent: est. 160): 6.54
Substance: rat betaglycan ZP-C domain (BG_(ZP-C)), mammalian-expressed S155A

- pKd ([1]; parent: est. 160): 6.64
Substance: rat betaglycan ZP-C domain (BG_(ZP-C)), mammalian-expressed D88A

- pKd ([1]; parent: est. 160): 7.15
Substance: rat betaglycan ZP-C domain (BG_(ZP-C)), mammalian-expressed K86A
